Biological target: rhCD39-ECD
Experiment: BLI
Details: 30.0 °C

Which results are given for TTX-030?
Kd (pH 6.5): approximately 1.5 nM; Kd (pH 7.4): approximately 1.5 nM

— article PMC7646477
